Values belong to the molecule of their own block, whether it stands above or below them. Square brackets hold non-standard residues; d marks the D form. Peptide text beside a SMILES is read from it. * marks the point of attachment. F2Pmp = N[C@@H](Cc1ccc(C(F)(F)P(=O)(O)O)cc1)C(=O)O; Bz = O=C(c1ccccc1)*
Assays:
[1] = molecular target: T1, human recombinant GST-PTP1B, non-mutated (Cys215) (Homo sapiens, UniProt P18031); assay: GST-PTP1B SPA binding assay with non-mutated (Cys215) enzyme; settings: read-out: % inhibition, Non-Mutated
T1 construct: Human recombinant PTP1B, containing amino acids 1-320; made in house; host or cells: E. coli
T1 sequence (P18031 1-320): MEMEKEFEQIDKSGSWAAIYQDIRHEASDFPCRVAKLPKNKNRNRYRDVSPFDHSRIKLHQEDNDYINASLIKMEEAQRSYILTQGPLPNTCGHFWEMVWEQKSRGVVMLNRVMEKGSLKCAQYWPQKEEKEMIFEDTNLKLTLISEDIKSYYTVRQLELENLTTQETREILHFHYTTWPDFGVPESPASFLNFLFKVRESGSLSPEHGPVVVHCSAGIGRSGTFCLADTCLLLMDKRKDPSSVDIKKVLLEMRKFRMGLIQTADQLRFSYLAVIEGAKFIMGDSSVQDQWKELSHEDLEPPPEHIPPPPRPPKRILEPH
Experimental: (§1) ID No. 7) contains active site serine(215).
(§2) IC50 Binding Assay Protocol
(§3) To each well is added the following solutions @ 25° C. in the following chronological order:
(§4) 1. 110 μl of assay buffer.
(§5) 3. 10 μl. of testing compound in DMSO at 10 different concentrations in serial dilution (final DMSO, about 5% v/v) in duplicate @ 25° C.
(§6) 4. 10 μl. of 3.75 μg/ml purified human recombinant GST-PTP1B in enzyme dilution buffer.
(§7) 5. The plate is shaken for 2 minutes.
(§8) 6. 10 μl. of 0.3 μg/ml anti-glutathione S-transferase (anti-GST) rabbit IgG (Molecular Probes) diluted in antibody dilution buffer @ 25° C.
(§9) 7. The plate is shaken for 2 minutes.
(§10) 8. 50 μl. of protein A-PVT SPA beads (Amersham) @ 25° C.
(§11) 9. The plate is shaken for 5 minutes. The binding signal is quantified on a Microbeta 96-well plate counter.
(§12) 10. The non-specific signal is defined as the enzyme-ligand binding in the absence of anti-GST antibody.
(§13) 11. 100% binding activity is defined as the enzyme-ligand binding in the presence of anti-GST antibody, but in the absence of the testing ligands with the non-specific binding subtracted.
(§14) 12. Percentage of inhibition is calculated accordingly.
(§15) 13. IC50 value is approximated from the non-linear regression fit with the 4-parameter/multiple sites equation (described in: "Robust Statistics", New York, Wiley, by P. J. Huber (1981) and reported in nM units.

[2] = molecular target: T2, human recombinant GST-PTP1B, mutated (Ser215) (Homo sapiens, UniProt P18031, C215S); assay: GST-PTP1B SPA binding assay with mutated enzyme (Ser215)
T2 construct: Human recombinant PTP1B, containing amino acids 1-320; made in house; host or cells: bacteria (E. coli DH5alpha named for the transformation)
T2 sequence (P18031 1-320 C215S): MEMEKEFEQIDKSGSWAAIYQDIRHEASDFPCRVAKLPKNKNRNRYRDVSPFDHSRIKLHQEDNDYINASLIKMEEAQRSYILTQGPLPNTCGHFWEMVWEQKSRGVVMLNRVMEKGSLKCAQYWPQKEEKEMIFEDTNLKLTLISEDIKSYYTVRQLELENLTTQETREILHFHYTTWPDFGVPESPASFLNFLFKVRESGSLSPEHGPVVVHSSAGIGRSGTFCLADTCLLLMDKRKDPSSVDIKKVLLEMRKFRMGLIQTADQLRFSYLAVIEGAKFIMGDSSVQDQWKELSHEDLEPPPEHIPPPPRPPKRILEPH
Experimental: as §1, §2, §3, §4, §5, §6, §7, §8, §9, §10, §11, §12, §13, §14, §15

PTP1B = assay: inhibition of PTP1B; type: biochemical; settings: type of constant not stated
[3] = molecular target: GST-PTP1B, mutated (Ser215): GST-PTP-1B Cys215Ser mutant, human PTP1B amino acids 1-320 fused to GST (human); assay: SPA competition binding assay against tritiated BzN-EJJ-CONH2, GST-PTP1B mutated (Ser215)
[4] = molecular target: GST-PTP1B, non-mutated (Cys215): human recombinant PTP1B amino acids 1-320 fused to GST enzyme (glutathione S-transferase) (human); assay: SPA competition binding assay against tritiated BzN-EJJ-CONH2, GST-PTP1B non-mutated (Cys215)
[5] = phosphatase activity of expressed PTP-1B constructs; type: biochemical; settings: expressed (E. coli for GST-PTP-1B) protein
Text: The full length human PTP-1B cDNA sequence (published in J. Chernoff et al., PNAS, USA, supra) cloned into a PET vector was obtained from Dr. Raymond Erickson (Harvard University). The PTP-1B CDNA sequence encoding amino acids 1-320 (Seq. ID No. 1) was amplified by PCR using the full length sequence as template. […] The amplified fragment was cloned into pCR2 (Invitrogen) and sequenced to insure that no sequence errors had been introduced by Taq polymerase during the amplification. This sequence was released from pCR2 by a Bam HI/Eco RI digest and the PTP-1B cDNA fragment ligated into the GST fusion vector pGEX-2T (Pharmacia) that had been digested with the same enzymes. […] This same 1-320 PTP-1B sequence (Seq. ID No. 1) was then cloned into the expression vector pFLAG-2, where FLAG is the octa-peptide […] This was done by releasing the PTP-1B sequence from the pGEX-2T vector by Nco I/Eco RI digest, filling in the ends of this fragment by Klenow and blunt-end ligating into the blunted Eco RI site of pFLAG2. Site-directed mutagenesis was performed on pFLAG2-PTP-1B plasmid using the Chameleon (Stratagene) double-stranded mutagenesis kit from Stratagene, to replaced the active-site Cys-215 with serine. The mutagenesis was carried out essentially as described by the manufacturer and mutants identifed by DNA sequencing. […]

[6] = molecular target: PTP1B tyrosine phosphatase (construct not stated) (human)
[7] = molecular target: T3, GST-PTP1B, non-mutated (Cys215): human recombinant PTP1B amino acids 1-320 fused to GST enzyme (glutathione … (human)); assay: SPA competition binding assay against tritiated BzN-EJJ-CONH2, GST-PTP1B non-mutated (Cys215)
T3 chain: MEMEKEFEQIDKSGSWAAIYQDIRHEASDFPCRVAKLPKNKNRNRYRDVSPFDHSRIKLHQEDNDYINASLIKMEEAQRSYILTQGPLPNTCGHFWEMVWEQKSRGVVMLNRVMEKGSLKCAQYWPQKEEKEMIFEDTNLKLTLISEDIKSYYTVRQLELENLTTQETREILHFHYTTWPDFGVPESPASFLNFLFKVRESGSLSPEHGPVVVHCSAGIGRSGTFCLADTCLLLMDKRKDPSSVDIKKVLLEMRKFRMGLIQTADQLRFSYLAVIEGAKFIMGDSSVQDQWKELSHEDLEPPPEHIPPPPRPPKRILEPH
Experimental: 1. 110 μl of assay buffer. 2. […] 3. 10 μl. of testing compound in DMSO at 10 different concentrations in serial dilution (final DMSO, about 5% v/v) in duplicate @ 25° C. 4. 10 μl. of 3.75 μg/ml purified human recombinant GST-PTP1B in enzyme dilution buffer. 5. The plate is shaken for 2 minutes. 6. 10 μl. of 0.3 μg/ml anti-glutathione S-transferase (anti-GST) rabbit IgG (Molecular Probes) diluted in antibody dilution buffer @ 25° C. 7. The plate is shaken for 2 minutes. 8. 50 μl. of protein A-PVT SPA beads (Amersham) @ 25° C. 9. The plate is shaken for 5 minutes. The binding signal is quantified on a Microbeta 96-well plate counter. 10. The non-specific signal is defined as the enzyme-ligand binding in the absence of anti-GST antibody. 11. 100% binding activity is defined as the enzyme-ligand binding in the presence of anti-GST antibody, but in the absence of the testing ligands with the non-specific binding subtracted. 12. Percentage of inhibition is calculated accordingly.

[8] = read-out: % inhibition, Mutated

Molecule: COc1cc(OC)c(OC)cc1CCN=CCc1ncc[nH]1 [Amine]
inhibition at 2 µM [1]: 67%
inhibition at 2 µM [2, 8]: 10%

Molecule: NC(=O)[C@H](Cc1ccc(C(F)(F)P(=O)(O)O)cc1)NC(=O)[C@H](Cc1ccc(C(F)(F)P(=O)(O)O)cc1)NC(=O)[C@H](CCC(=O)O)NC(=O)c1ccccc1 [BzN-EJJ-CONH2, N-Benzoyl-L-glutamyl-[4-phosphono(difluoromethyl)]-L-phenylalanyl-[4-phosphono(difluoromethyl)]-L-phenylalanineamide] (Bz-Glu-[F2Pmp]-[F2Pmp]-NH2)
active inhibitor of PTP1B (PTP1B): 5 nM
binding of substrate analog to mutated enzyme ([2]; mutated enzyme, truncated, amino acids 1-320): high affinity

Molecule: OO [Hydrogen peroxide]
inhibition at 83 µM [1]: 90%
inhibition at 83 µM [2, 8]: 0%

IC50 [3]: 100 nM
IC50 [4]: 400 nM
Molecule: DADE(F2PMP)L hexapeptide

B1: GST-PTP-1B fusion protein: PTP-1B amino acids 1-320 fused to GST, expressed in E. Coli (protein)
chain: MEMEKEFEQIDKSGSWAAIYQDIRHEASDFPCRVAKLPKNKNRNRYRDVSPFDHSRIKLHQEDNDYINASLIKMEEAQRSYILTQGPLPNTCGHFWEMVWEQKSRGVVMLNRVMEKGSLKCAQYWPQKEEKEMIFEDTNLKLTLISEDIKSYYTVRQLELENLTTQETREILHFHYTTWPDFGVPESPASFLNFLFKVRESGSLSPEHGPVVVHCSAGIGRSGTFCLADTCLLLMDKRKDPSSVDIKKVLLEMRKFRMGLIQTADQLRFSYLAVIEGAKFIMGDSSVQDQWKELSHEDLEPPPEHIPPPPRPPKRILEPH
phosphatase activity [5]: active protein tyrosine phosphatase activity

inhibitor of PTP1B [6]: 5 nM
IC50 [7]: 14 nM
IC50 [3]: 8 nM
B2: N-Benzoyl-L-glutamyl-[4-phosphono(difluoromethyl)]-L-phenylalanyl-[4-phosphono(difluoromethyl)]-L-phenylalanineamide (BzN-EJJ-CONH2) (peptide)
peptide: Bz-Glu-[F2Pmp]-[F2Pmp]-NH2

B3: FLAG-PTP-1B Cys215Ser mutant: FLAG-tagged PTP-1B with active-site Cys-215 replaced with serine (Seq. ID No. 7) (protein, UniProt P18031 1-435, looked up, variant C215S)
Tyrosine-protein phosphatase …: MEMEKEFEQIDKSGSWAAIYQDIRHEASDFPCRVAKLPKNKNRNRYRDVSPFDHSRIKLHQEDNDYINASLIKMEEAQRSYILTQGPLPNTCGHFWEMVWEQKSRGVVMLNRVMEKGSLKCAQYWPQKEEKEMIFEDTNLKLTLISEDIKSYYTVRQLELENLTTQETREILHFHYTTWPDFGVPESPASFLNFLFKVRESGSLSPEHGPVVVHSSAGIGRSGTFCLADTCLLLMDKRKDPSSVDIKKVLLEMRKFRMGLIQTADQLRFSYLAVIEGAKFIMGDSSVQDQWKELSHEDLEPPPEHIPPPPRPPKRILEPHNGKCREFFPNHQWVKEETQEDKDCPIKEEKGSPLNAAPYGIESMSQDTEVRSRVVGGSLRGAQAASPAKGEPSLPEKDEDHALSYWKPFLVNMCVATVLTAGAYLCYRFLFNSNT
modifications: FLAG tag
phosphatase activity [5]: not to have any phosphatase activity
